Experiment [1] addresses T1, MBP-MUC16^ecto (maltose binding protein fused to the 26-residue MUC16 ectodomain segment) (Homo sapiens).
T1 construct: linker between MBP and the MUC16 segment; Cloned into pMal-C5X (NEB); Only one of the two PDB entries holds this chain; also called MBP-fused MUC16-target; MBP-tagged MUC16-target (wt); source: E. coli BL21-RIL (DE3), purified (amylose resin, Superdex-75); not shown: MBP, N-terminal, kept
T1 chain: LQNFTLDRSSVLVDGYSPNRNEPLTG
The experiment is described as follows: pull-down; MBP pull-down on amylose resin; MBP-tagged MUC16-target as bait (~20 µg), scFv as prey at 2-fold molar excess; 50 mM Tris-HCl pH 8.0, 400 mM NaCl, 1 mM EDTA, 1 mM DTT, 4 °C, 3 h; three washes; SDS-PAGE. Conditions: both partners purified.

In experiment [2] the target is T2, native glycosylated MUC16 expressed on cancer cells (OVCAR3, SKBR3) (human (endogenous in OVCAR3 and SKBR3), UniProt Q8WXI7, glycosylated (native)).
T2 construct: MUC16 (mucin 16), as expressed on the surface of OVCAR3 and SKBR3 cells; also called Mucin 16; cellular MUC16; source: endogenous, on OVCAR3 and SKBR3 cells
The experiment is described as follows: immunostaining of cells or tissue; Alexa-conjugated scFv on fixed cells; Alexa-350-WGA as membrane marker; OVCAR3 and SKBR3 (MUC16-expressing), HEK293T/17 and SKOV3 as controls. Conditions: one partner purified.

Experiment [3] addresses T1, MBP-MUC16^ecto (maltose binding protein …). Kind of experiment: ITC; ITC200, 23 °C; scFv (12.8 µM) in the cell, MUC16 peptide (144 µM) or MBP-MUC16^ecto (130 µM) in the syringe; 50 mM Tris pH 8.0, 400 mM NaCl (the results say pH 7.4); average of three experiments. Conditions: both partners purified. (In general: ITC needs no label: the signal is the heat of the interaction.)

Experiment [4] deals with T3, commercially synthesized MUC16^ecto peptide (26 residues) (Homo sapiens).
T3 construct: also called synthesized MUC16-target; the synthesized peptide; source: synthetic peptide (commercially synthesized)
T3 chain: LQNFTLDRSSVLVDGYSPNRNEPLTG
The experiment is described as above. The settings on record: both partners purified.

B1: 4H11-scFv with VH double mutations S53A/D106A (scFv, V domains shown)
VH: EVKLQESGGGFVKPGGSLRVSCAASGFTFSSYAMSWVRLAPEMRLEWVATISAAGGYIFYSDSVQGRFTISRDNAKNSLHLQMGSLRSGDTAMYYCARQGFGNYGAYYAMDYWGQGTTVTVSS
VL: DIELTQSPSSLAVSAGERVTMNCKSSQSLLNSRTRKNQLAWYQQKPGQSPELLIYWASTRQSGVPDRFSGSGSGTDFTLTISSVQAEDVAVYYCQQSYNLLTFGPGTKLEIK
notes: as the VH of m1 (hVH2, E1-S123); linker (GGGGS)5; as the VL of m1 (hVL1, D1-R113 = scFv residues 149-261); Made by QuikChange mutagenesis of m1; also called scFv mutant S53A/D106A; source: ExpiCHO-S, transfected (same lentivector as the wild type)
In the case of B1, the binding result in experiment [1] is “binds”.

B2: Alexa-fluorescence conjugated 4H11-scFv (scFv, V domains shown)
VH: EVKLQESGGGFVKPGGSLRVSCAASGFTFSSYAMSWVRLAPEMRLEWVATISSAGGYIFYSDSVQGRFTISRDNAKNSLHLQMGSLRSGDTAMYYCARQGFGNYGDYYAMDYWGQGTTVTVSS
VL: DIELTQSPSSLAVSAGERVTMNCKSSQSLLNSRTRKNQLAWYQQKPGQSPELLIYWASTRQSGVPDRFSGSGSGTDFTLTISSVQAEDVAVYYCQQSYNLLTFGPGTKLEIK
notes: as the VH of m1 (hVH2, E1-S123); linker (GGGGS)5; as the VL of m1 (hVL1, D1-R113 = scFv residues 149-261); also called Alexa-4H11-scFv; Alexa-labeled scFv; source: purified 4H11-scFv labeled with Alexa Fluor 488 carboxylic acid, further purified by Superdex-75
As for B2, in experiment [2], the binding result is given as “binds”.

B3: 4H11-scFv with VL double mutations Y246A/N247A (scFv, V domains shown)
VH: EVKLQESGGGFVKPGGSLRVSCAASGFTFSSYAMSWVRLAPEMRLEWVATISSAGGYIFYSDSVQGRFTISRDNAKNSLHLQMGSLRSGDTAMYYCARQGFGNYGDYYAMDYWGQGTTVTVSS
VL: DIELTQSPSSLAVSAGERVTMNCKSSQSLLNSRTRKNQLAWYQQKPGQSPELLIYWASTRQSGVPDRFSGSGSGTDFTLTISSVQAEDVAVYYCQQSAALLTFGPGTKLEIK
notes: as the VH of m1 (hVH2, E1-S123); linker (GGGGS)5; as the VL of m1 (hVL1, D1-R113) with the stated changes. numbers count on: the whole scFv (VL begins at D149); Made by QuikChange mutagenesis of m1; also called scFv mutant Y246A/N247A; source: ExpiCHO-S, transfected (same lentivector as the wild type)
With B3, the binding result in experiment [1] is recorded as “binds”.

B4: 4H11-scFv (H2L1), VH-linker (GGGGS)5-VL (scFv, V domains shown)
VH: EVKLQESGGGFVKPGGSLRVSCAASGFTFSSYAMSWVRLAPEMRLEWVATISSAGGYIFYSDSVQGRFTISRDNAKNSLHLQMGSLRSGDTAMYYCARQGFGNYGDYYAMDYWGQGTTVTVSS
VL: DIELTQSPSSLAVSAGERVTMNCKSSQSLLNSRTRKNQLAWYQQKPGQSPELLIYWASTRQSGVPDRFSGSGSGTDFTLTISSVQAEDVAVYYCQQSYNLLTFGPGTKLEIK
notes: humanized 4H11 VH (hVH2 of H2L1), E1-S123; linker (GGGGS)5, residues 124-148 of the scFv; humanized 4H11 VL (hVL1 of H2L1), D1-R113, which are residues 149-261 of the scFv; N-terminal signal peptide in the construct for secretion; also called h4H11-scFv; H2L1 4H11-scFv
By Kd is commonly meant a measure of binding affinity in units of concentration. Turning to B4, the Kd in experiment [3] was approximately 2 nM; in experiment [4] it was approximately 1.4 nM.

Values taken from publication PMC10875768, “Structural basis for antibody recognition of the proximal MUC16 ectodomain” (Journal of Ovarian Research, 2024).
